Patent US20220259289A1 (Janssen / Centocor, published 2022)
Substitutions are numbered along the chain they refer to.

B1: ISOP120BR5P1F1 (designed binder, not shown: small tags and cut ends)
chain: LPAPKNLVVSRVTEDSARLSWTFHPTFEGFDSFLIQYQESEKVGEAIVLTVPGSERSYDLTGLKPGTEYTVSIYGVKWTVLRPWLSNPLSAIFTT
notes: FN3 domain (Centyrin); tested as E. coli lysate
B2: ISOP120AR5P1G8 (designed binder, not shown: small tags and cut ends)
chain: LPAPKNLVVSRVTEDSARLSWHATFGDPFDSFLIQYQESEKVGEAIVLTVPGSERSYDLTGLKPGTEYTVSIYGVGRHYTVYDSNPLSAIFTT
notes: as for B1
B3: ISOP120AR5P1D9 (designed binder, not shown: small tags and cut ends)
chain: B2 chain with H22N, A23T, T24D, F25W, G26V, D27H, P28T
notes: as for B1
B4: ISOP120BR5P1G11 (designed binder, not shown: small tags and cut ends)
chain: LPAPKNLVVSRVTEDSARLSWTKRHFYTFDSFLIQYQESEKVGEAIVLTVPGSERSYYLTGLKPGTENTVSIYGVHGNHPYTDAPANPLSAIFTT
notes: as for B1
B5: ISOP120FR5P1E10 (designed binder, not shown: small tags and cut ends)
chain: LPAPKNLVVSRVTEDSARLSWTAPDAAFDSFLIHYTEQPSKGEAIVLTVPGSERSYDLTGLKPGTEYQVPIGVKGGTQSCPLSAIFTT
notes: as for B1
B6: ISOP120BR5P1D9 (designed binder, not shown: small tags and cut ends)
chain: LPAPKNLVVSRVTEDSARLSWTINSHIFDSFLIQYQESEKVGEAIVLTVPGSERSYDLTGLKPGTEYTVSIYGVWGTKYWQAQSNPLSAIFTT
notes: as for B1
B7: ISOP120BR5P1C1 (designed binder, not shown: small tags and cut ends)
chain: LPAPKNLVVSRVTEDSARLSWVREDAYAFDSFLIQYQESEKVGEAIVLTVPGSERSYDLTGLKPGTEYTVSIYGVSSLHWVVHDSNPLSAIFTT
notes: as for B1
B8: ISOP120BR5P1E2 (designed binder, not shown: small tags and cut ends)
chain: LPAPKNLVVSRVTEDSARLSWAQELDHFDSFLIQYQESEKVGEAIVLTVPGSERSYDLTGLKPGTEYTVSIYGVYWTWWVRWNSNPLSAIFTT
notes: as for B1
B9: ISOP120GR5P1E1 (designed binder, not shown: small tags and cut ends)
chain: LPAPKNLVVSRVTEDSARLSWTAPDAAFDSFIIQYAEDSSWGEAINLHVPGSERSYDLTGLKPGTEYHVHIYGVKGGEASNPLWAWFTT
notes: as for B1
B10: ISOP120AR5P1B12 (designed binder, not shown: small tags and cut ends)
chain: LPAPKNLVVSRVTEDSARLSWDGDKWANFKFDSFLIQYQESEKVGEAIVLTVPGSERSYDLTGLKPGTEYTVSIYGVGLHYIVYDSNPLSAIFTT
notes: FN3 domain (Centyrin)
B11: ISOP120BR5P1G4 (designed binder, not shown: small tags and cut ends)
chain: LPAPKNLVVSRVTEDSARLSWAGHYRKIRNFDSFLIQYQESEKVGEAIVLTVPGSERSYDLTGLKPGTEYTVSIYGVKFPYYYATADSNPLSAIFTT
notes: as for B1
B12: ISOP120BR5P1A5 (designed binder, not shown: small tags and cut ends)
chain: B11 chain with E56K
notes: as for B1
B13: ISOP120BR5P1E8 (designed binder, not shown: small tags and cut ends)
chain: LPAPKNLVVSRVTEDSARLSWNGGEYWVPRFDSFLIQYQESEKVGEAIVLTVPGSERSYDLTGLKPGTEYTVSIYGVVWLQWISWTDSNPLSAIFTT
notes: as for B1
B14: ISOP193ER9P1G11 (designed binder, not shown: small tags and cut ends)
chain: LPAPKNLVVSRVTEDSARLSWTAPDAAFDSFDIYYFEHPVGGEAIVLTVPGSERSYDLTGLKPGTEYLVTIYGVKGGYLSMPLSAIFTT
B15: ISOP120BR5P1E4 (designed binder, not shown: small tags and cut ends)
chain: LPAPKNLVVSRVTEDSARLSWDDQFEDWFDSFLIQYQESEQVGEAIVLTVPGSERSYDLTGLKPGTEYTVSIYGVHTRDWTAWNASNPLSAIFTT
notes: as for B1
B16: ISOP120BR5P1D3 (designed binder, not shown: small tags and cut ends)
chain: LPAPKNLVVSRVTEDSARLSWSEHPTPFATFDSFLIQYQESEKVGEAIVLTVPGSERSYDLTGLKPGTEYTVSIYGVWWVENHFPVSNPLSAIFTT
notes: as for B1
B17: ISOP120BR5P1C7 (designed binder, not shown: small tags and cut ends)
chain: LPAPKNLVVSRVTEDSARLSWNVTQKEFDSFLIQYQESEKVGEAIVLTVPGSERSYDLTGLKPGTEYTVSIYGVGNRYYTVYDSNPLSAIFTT
notes: as for B1
B18: ISOP120GR5P1G3 (designed binder, not shown: small tags and cut ends)
chain: LPAPKNLVVSRVTEDSARLSWTAPDAAFDSFYIRYWEFCHSGEAIELSVPGSERSYDLTGLKPGTEYFVRIVGVKGGRVSLPLGAKFTT
notes: as for B1
B19: ISOP120BR5P1H3 (designed binder, not shown: small tags and cut ends)
chain: LPAPKNLVVSRVTEDSARLSWEESRQFFDSFLIQYQESEKVGEAIVLTVPGSERSYDLTGLKPGTEYTVSIYGVVHRAWLRWNGSNPLSAIFTT
notes: as for B1
B20: ISOP120BR5P1A10 (designed binder, not shown: small tags and cut ends)
chain: LPAPKNLVVSRVTEDSARLSWTEEDITHLRFDSFLIQYQESEKVGEAIVLTVPGSERSYDLTGLKPGTEYTVSIYGVYWTWWVRWNSNPLSAIFTT
notes: as for B1
B21: ISOP120BR5P1B9 (designed binder, not shown: small tags and cut ends)
chain: LPAPKNLVVSRVTEDSARLSWAVEFNPTKFDSFLIQYQESEKVGEAIVLTVPGSERSYDLTGLKPGTEYTVSIYGVWWFEQWYPVSNPLSAIFTT
notes: as for B1
B22: ISOP120BR5P1C9 (designed binder, not shown: small tags and cut ends)
chain: LPAPKNLVVSRVTEDSARLSWAWNRHDFDSFLIQYQESEKVGEAIVLTVPGSERSYDLTGLKPGTEYTVSIYGVHWTVLRPFIDSNPLSAIFTT
notes: as for B1
B23: ISOP120BR5P1B7 (designed binder, not shown: small tags and cut ends)
chain: LPAPKNLVVSRVTEDSARLSWGAKTRQFDSFLIQYQESEKVGEAIVLTVPGSERSYDLTGLKPGTEYTVSIYGVWWVENHFPVSNPLSAIFTT
notes: as for B1
B24: ISOP120BR5P1D2 (designed binder, not shown: small tags and cut ends)
chain: LPAPKNLVVSRVTEDSARLSWIRKHNHVKWFDSFLIQYQESEKVGEAIVLTVPGSERSYDLTGLKPGTEYTVSIYGVGFLIDTDDSNPLSAIFTT
notes: as for B1
B25: ISOP120AR5P1C3 (designed binder, not shown: small tags and cut ends)
chain: LPAPKNLVVSRVTEDSARLSWSPVDADFTFDSFLIQYQESEKVGEAIVLTVPGSERSYDLTGLKPGTEYTVSIYGVGRHYTVYDSNPLSAIFTT
notes: as for B1
B26: ISOP120BR5P1E6 (designed binder, not shown: small tags and cut ends)
chain: LPAPKNLVVSRVTEDSARLSWLEGANAEFDSFLIQYQESEKVGEAIVLTVPGSERSYDLTGLKPGTEYTVSIYGVHWVGPWYPVSNPLSAIFTT
notes: as for B1
B27: ISOP120BR5P1D8 (designed binder, not shown: small tags and cut ends)
chain: LPAPKNLVVSRVTEDSARLSWKNHTQEWEFDSFLIQYQESEKVGEAIVLTVPGSERSYDLTGLKPGTEYTVSIYGVPIAWLAWTSTSNPLSAIFTT
notes: as for B1
B28: ISOP120BR5P1F2 (designed binder, not shown: small tags and cut ends)
chain: LPAPKNLVVSRVTEDSARLSWTFHPTFEGFDSFLIQYQESEKVGEAIVLTVPGSERSYDLTGLKPGTEYTVSIYGVKWYAGIGYPVSNPLSAIFTT
notes: as for B1

Key:
[1] = target: unrelated Fc-fused recombinant protein (negative control); test: ELISA, bacterial lysate on plate-bound antigen, luminescence
[2] = target: T1, recombinant biotinylated human CD137 protein (Fc-fusion protein, R&D Systems 838-4B) (human, UniProt Q07011 24-186, biotinylated (site not stated)); test: as above
T1 construct: Bought Fc fusion; The ELISA used the same antigen as the panning; also called CD137-Fc; biotinylated CD137; not shown: Fc part of the bought fusion protein
Experimental: (§1) Streptavidin-coated Maxisorp plates (Nunc catalog 436110) were blocked for 1 h in Starting Block T20 (Pierce) and then coated with biotinylated CD137 (using same antigen as in panning) or negative controls (an unrelated Fc-fused recombinant protein and human serum albumin) for 1 h. Plates were rinsed with TBST and diluted lysate was applied to plates for 1 h. Following additional rinses, wells were treated with HRP-conjugated anti-Centyrin antibody (PAB25) for 1 h and then assayed with POD (Roche catalog 11582950001).

human serum albumin = target: T2, human serum albumin (human, UniProt P02768 25-609); test: as above
T2 construct: Negative control antigen of the screening ELISA; also called HSA
T2 sequence (P02768 25-609 limits assumed): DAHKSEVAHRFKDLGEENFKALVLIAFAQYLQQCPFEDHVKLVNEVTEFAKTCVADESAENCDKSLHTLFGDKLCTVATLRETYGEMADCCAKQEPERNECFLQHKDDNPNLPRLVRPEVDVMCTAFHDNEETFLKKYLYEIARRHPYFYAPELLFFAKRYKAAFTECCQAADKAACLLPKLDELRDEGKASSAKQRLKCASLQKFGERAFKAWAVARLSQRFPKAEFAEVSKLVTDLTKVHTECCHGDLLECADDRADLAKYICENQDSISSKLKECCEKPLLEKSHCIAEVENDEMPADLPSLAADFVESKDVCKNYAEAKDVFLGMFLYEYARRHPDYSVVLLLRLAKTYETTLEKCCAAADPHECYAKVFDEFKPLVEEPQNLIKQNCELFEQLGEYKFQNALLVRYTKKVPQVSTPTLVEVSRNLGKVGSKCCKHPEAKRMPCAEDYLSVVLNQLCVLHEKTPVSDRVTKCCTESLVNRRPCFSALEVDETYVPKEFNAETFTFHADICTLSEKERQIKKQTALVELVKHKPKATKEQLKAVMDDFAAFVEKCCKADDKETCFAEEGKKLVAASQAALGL
Experimental: as §1

[3] = target: unrelated Fc-fused recombinant protein; test: ELISA, negative control Fc protein
[4] = target: extracellular domain of human CD137 on the surface of CHO-K1 cells (human, UniProt Q07011 24-186); test: flow cytometry on CHO-K1 cells with human CD137 ECD
Experimental: Cell surface binding was analyzed via flow cytometry. Cenyrins were prepared at a maximal concentration of 500 nM in the presence of 125 nM anti His-mIgG1 antibody and then serially diluted in PBS/1% FCS buffer. Samples were then applied to approx 100 000 CHO-Kl cells expressing the extracellular domain of human CD137 on their surface. Unbound Centyrin/Antibody complexes were washed away and bound FN3 domains were detected by the addition of goat anti mouse-FITC labeled antibody. Samples were then aquired by flow cytometry. Subsequently, Mean flurescence intensity was plotted against the log Centyrin concentration and EC50 values were calculated by nonlinear regression using GraphPad Prism.

| Binder | ELISA Fc Control (RLU) [1] | ELISA CD137-Fc (RLU) [2] | ELISA HSA (RLU) (human serum albumin) | ELISA Fc Control (RLU) [3] | EC50 [4] |
| --- | --- | --- | --- | --- | --- |
| B1 | 480 RLU | 542000 RLU | 480 RLU | – | – |
| B2 | 320 RLU | 541000 RLU | 320 RLU | – | – |
| B3 | 320 RLU | 636000 RLU | 320 RLU | – | – |
| B4 | 480 RLU | 485000 RLU | 560 RLU | – | – |
| B5 | 240 RLU | 953000 RLU | 320 RLU | – | – |
| B6 | 560 RLU | 1.22e+06 RLU | 560 RLU | – | – |
| B7 | 480 RLU | 438000 RLU | 480 RLU | – | – |
| B8 | 5680 RLU | 882000 RLU | 4960 RLU | – | – |
| B9 | 320 RLU | 1.02e+06 RLU | 320 RLU | – | – |
| B10 | 400 RLU | 864000 RLU | 480 RLU | – | – |
| B11 | 480 RLU | 580000 RLU | 400 RLU | – | – |
| B12 | 640 RLU | 503000 RLU | 400 RLU | – | – |
| B13 | 480 RLU | 906000 RLU | 640 RLU | – | – |
| B14 | – | – | – | 1440 RLU | 18.7 nM |
| B15 | 320 RLU | 942000 RLU | 560 RLU | – | – |
| B16 | 240 RLU | 1.14e+06 RLU | 400 RLU | – | – |
| B17 | 880 RLU | 306000 RLU | 240 RLU | – | – |
| B18 | 320 RLU | 1.34e+06 RLU | 320 RLU | – | – |
| B19 | 2000 RLU | 875000 RLU | 720 RLU | – | – |
| B20 | 36200 RLU | 573000 RLU | 26600 RLU | – | – |
| B21 | 560 RLU | 358000 RLU | 400 RLU | – | – |
| B22 | 320 RLU | 1.27e+06 RLU | 560 RLU | – | – |
| B23 | 400 RLU | 565000 RLU | 480 RLU | – | – |
| B24 | 720 RLU | 361000 RLU | 240 RLU | – | – |
| B25 | 320 RLU | 927000 RLU | 240 RLU | – | – |
| B26 | 320 RLU | 779000 RLU | 400 RLU | – | – |
| B27 | 480 RLU | 942000 RLU | 320 RLU | – | – |
| B28 | 400 RLU | 299000 RLU | 240 RLU | – | – |
